Among the data in article PMC11480844 (2024) are ratio to parent values, retold here.

The labels stand for the following.
B1: H2-Kb / Ed45 (parent complex)
chain 1: GEQVEQRPPHLSVREGDSAVIICTYTDPNSYYFFWYKQEPGAGLQLLMKVFSSTEINEGQGFTVLLNKKDKQLSLNLTAAHPGDSAVYFCAVSGTNAYKVIFGKGTHLHVLP
chain 2: EAAVTQSPRSKVAVTGGKVTLSCHQTNNHDYMYWYRQDTGHGLRLIHYSYVADSTEKGDIPDGYKASRPSQENFSLILELASLSQTAVYFCASARGFQDTQYFGPGTRLLVL
chain 3: not shown
chain 4: IQKTPQIQVYSRHPPENGKPNILNCYVTQFHPPHIEIQMLKNGKKIPKVEMSDMSFSKDWSFYILAHTEFTPTETDTYACRVKHDSMAEPKTVYWDRDM
chain 5: SIINFEKL
B2: H2-Kb / Ed10 (parent complex)
chain 1: GEQVEQRPPHLSVREGDSAFIICTYTDSATAYFYWYKQEPGAGLQLLMSVFSNVDRKEEQGLTVLLNKKDKRLSLNLTAAHPGDSAVYFCAVRGTGYQNFYFGKGTSLTVIP
chain 2: AQTIHQWPVAEIKAVGSPLSLGCTIKGKSSPNLYWYWQATGGTLQQLFYSITVGQVESVVQLNLSASRPKDDQFILSTEKLLLSHSGFYLCAWSPGYEQYFGPGTRLTVL
chain 3: not shown
chain 4: B1 chain 4
chain 5: SIINFEKL
Note: test concentration or dose not given here.

The variants in the first assay derive from B1. Description: % of reporter cells activated (NFAT-GFP), raw.
With chain 5 S1Q, the ratio to parent was 0.331.

On to chain 5 S1W, for which the ratio to parent stood at 0.347. On the same count and under the same terms, in the case of chain 5 S1E it was 0.177; in that of chain 5 S1R, 0.648. On the same count and under the same terms, in the case of chain 5 S1M it was 0.0805; in that of chain 5 S1I, 0.0549; in that of chain 5 S1N, 0.0722. For chain 5 S1P, the ratio to parent turned out to be 0.0861. Take chain 5 S1K: the ratio to parent is 0.191.

Take chain 5 S1D: the ratio to parent was 0.424. Still for that read-out and setting: under chain 5 S1T stands 0.483; under chain 5 S1V, 0.0654; under chain 5 S1F, 0.0609.

For chain 5 S1Y, the ratio to parent came to 0.775. Same read-out and setting: in the case of chain 5 S1A it was 0.0786; in that of chain 5 S1G, 0.388; in that of chain 5 S1C, 0.234. Same read-out and setting: in the case of chain 5 S1H it was 0.638. Consider chain 5 F5W, for which the ratio to parent amounted to 2.33. Still for that read-out and setting: under chain 5 F5T stands 0.936; under chain 5 F5D, 1.54; under chain 5 F5N, 1.23. For chain 5 F5G, the ratio to parent worked out at 0.495. For chain 5 F5H, the ratio to parent amounted to 1.28. On the same count and under the same terms, under chain 5 F5E stands 1.34; under chain 5 F5C, 1.61. Take chain 5 F5A: the ratio to parent was 0.77. On the same count and under the same terms, under chain 5 F5Q stands 0.947; under chain 5 F5M, 0.797. Regarding chain 5 F5I, the ratio to parent was 0.389. Still for that read-out and setting: under chain 5 F5S stands 1.09.

As to chain 5 F5R, the ratio to parent is 1.73. Same read-out and setting: in the case of chain 5 F5K it was 1.19; in that of chain 5 F5V, 0.617. Same read-out and setting: under chain 5 F5P stands 1; under chain 5 F5Y, 1.63; under chain 5 K7D, 0.247. Consider chain 5 K7T, for which the ratio to parent is 0.253. On the same count and under the same terms, under chain 5 K7G stands 0.872. On the same count and under the same terms, under chain 5 K7V stands 0.895; under chain 5 K7P, 0.891. The same measure, in the same setting: in the case of chain 5 K7H it was 1.25; in that of chain 5 K7Q, 0.193; in that of chain 5 K7E, 0.0609. In the case of chain 5 K7M, the ratio to parent is 1.21. Same read-out and setting: under chain 5 K7C stands 0.0944.

As to chain 5 K7N, the ratio to parent was determined as 0.639. Still for that read-out and setting: under chain 5 K7L stands 0.569; under chain 5 K7W, 1.18.

Turning to chain 5 K7A, the ratio to parent was found to be 0.925.

Take chain 5 K7I: the ratio to parent turned out to be 0.349. On the same count and under the same terms, in the case of chain 5 K7Y it was 1.03. The same measure, in the same setting: in the case of chain 5 K7R it was 2.06.

Turning to chain 5 K7F, the ratio to parent was 0.418.

On to chain 5 L8I, for which the ratio to parent was determined as 1.62.

With chain 5 L8G, the ratio to parent was 1.57. The same measure, in the same setting: under chain 5 L8M stands 1.65.

For the variant chain 5 L8S, the ratio to parent came to 1.53.

In the case of chain 5 L8D, the ratio to parent was determined as 1.52. As to chain 5 L8A, the ratio to parent is 1.77. On the same count and under the same terms, under chain 5 L8H stands 1.66; under chain 5 L8W, 1.7. Still for that read-out and setting: in the case of chain 5 L8V it was 1.43; in that of chain 5 L8C, 1.72. The same measure, in the same setting: under chain 5 L8R stands 1.77. For chain 5 L8K, the ratio to parent worked out at 1.87.

Regarding chain 5 L8P, the ratio to parent was determined as 1.68. Still for that read-out and setting: under chain 5 L8T stands 1.72; under chain 5 L8F, 1.79; under chain 5 L8Y, 1.85. On the same count and under the same terms, under chain 5 L8E stands 1.52; under chain 5 L8N, 1.6; under chain 5 E6F, 0.188. On the same count and under the same terms, under chain 5 E6C stands 0.258. chain 5 E6M: the ratio to parent came out at 0.312. The same measure, in the same setting: under chain 5 E6H stands 0.541; under chain 5 E6Y, 0.198; under chain 5 E6L, 0.26. Same read-out and setting: in the case of chain 5 E6W it was 0.317; in that of chain 5 E6Q, 0.738; in that of chain 5 E6I, 0.155. On the same count and under the same terms, under chain 5 E6N stands 1.11; under chain 5 E6A, 1.48; under chain 5 E6V, 0.148.

Turning to chain 5 E6R, the ratio to parent was 0.0752. On to chain 5 E6D, for which the ratio to parent amounted to 0.542. With chain 5 E6P, the ratio to parent is 1.12. On the same count and under the same terms, in the case of chain 5 E6K it was 0.861; in that of chain 5 E6G, 0.715; in that of chain 5 E6S, 0.801. With chain 5 I2S, the ratio to parent was 1.32. Regarding chain 5 I2G, the ratio to parent came out at 1.62. Same read-out and setting: in the case of chain 5 I2H it was 1.61. Same read-out and setting: in the case of chain 5 I2W it was 1.68; in that of chain 5 I2M, 2.11. The same measure, in the same setting: in the case of chain 5 I2D it was 1.34; in that of chain 5 I2A, 1.32; in that of chain 5 I2E, 1.97. Regarding chain 5 I2Y, the ratio to parent was determined as 1.75. On the same count and under the same terms, in the case of chain 5 I2P it was 1.32; in that of chain 5 I2C, 1.39.

As for chain 5 I2K, the ratio to parent amounted to 1.83. The same measure, in the same setting: in the case of chain 5 I2V it was 1.48; in that of chain 5 I2T, 1.23; in that of chain 5 I2R, 1.63.

As for chain 5 I2Q, the ratio to parent stood at 1.91. The same measure, in the same setting: in the case of chain 5 I2F it was 1.21; in that of chain 5 I2N, 1.33; in that of chain 5 I2L, 2.14.

Consider chain 5 I3N, for which the ratio to parent was 1.85.

As to chain 5 I3V, the ratio to parent worked out at 2.18.

Regarding chain 5 I3G, the ratio to parent came to 1.87. On the same count and under the same terms, in the case of chain 5 I3K it was 2.08; in that of chain 5 I3C, 1.81. On the same count and under the same terms, under chain 5 I3Q stands 2.26. On the same count and under the same terms, in the case of chain 5 I3F it was 0.726. Turning to chain 5 I3L, the ratio to parent amounted to 1.61. On to chain 5 I3M, for which the ratio to parent came to 2.2. On the same count and under the same terms, under chain 5 I3P stands 2.34. Still for that read-out and setting: under chain 5 I3T stands 1.86; under chain 5 I3W, 1.57; under chain 5 I3A, 2.14. Take chain 5 I3Y: the ratio to parent came out at 0.537. For the variant chain 5 I3R, the ratio to parent was 2.47.

For the variant chain 5 I3S, the ratio to parent was 1.96. Consider chain 5 I3H, for which the ratio to parent turned out to be 2.02. Same read-out and setting: in the case of chain 5 I3E it was 2.17; in that of chain 5 I3D, 2.15. Same read-out and setting: in the case of chain 5 N4S it was 0.0823; in that of chain 5 N4M, 0.0786; in that of chain 5 N4D, 0.241. On the same count and under the same terms, in the case of chain 5 N4C it was 0.183; in that of chain 5 N4V, 0.0865; in that of chain 5 N4F, 0.261. For chain 5 N4H, the ratio to parent came out at 0.668. On the same count and under the same terms, under chain 5 N4G stands 1.18; under chain 5 N4K, 1.07; under chain 5 N4E, 1.11. The same measure, in the same setting: in the case of chain 5 N4Y it was 0.0695. The same measure, in the same setting: in the case of chain 5 N4A it was 0.0797; in that of chain 5 N4T, 0.0812; in that of chain 5 N4Q, 0.0624. On to chain 5 N4R, for which the ratio to parent worked out at 0.533. Same read-out and setting: in the case of chain 5 N4P it was 0.0883; in that of chain 5 N4W, 0.125.

Consider chain 5 N4L, for which the ratio to parent is 1.34.

The variants in another assay derive from B2. Description: % of reporter cells activated (NFAT-GFP), raw.
Regarding chain 5 E6S, the ratio to parent amounted to 0.0168. On to chain 5 E6G, for which the ratio to parent was found to be 0.824.

For the variant chain 5 S1W, the ratio to parent turned out to be 0.717. On the same count and under the same terms, in the case of chain 5 S1H it was 1.01.
